Experimental data from PMC8395244, “The Oxoglutarate Binding Site and Regulatory Mechanism Are Conserved in Ammonium Transporter Inhibitors GlnKs from Methanococcales” (International Journal of Molecular Sciences, 2021).

Experiments:
[1] = biological target: MtGlnK2 (GlnK isoform 2 from Methanothermococcus thermolithotrophicus), recombinant, N-terminally tagged (Methanothermococcus thermolithotrophicus); test: crystal structure; sitting drop at 18 °C; crystallised with or without 2 mM ATP, 2 mM 2OG and 2 mM MgCl2; solved by molecular replacement with PDB 2J9D
[2] = biological target: MtGlnK1 (GlnK isoform 1 from Methanothermococcus thermolithotrophicus), recombinant, N-terminally tagged (Methanothermococcus thermolithotrophicus); test: as above

stoichiometry N [1]	stoichiometry N [2]	Substance
3	–	MtGlnK2 (GlnK isoform 2 from Methanothermococcus thermolithotrophicus), recombinant, N-terminally tagged (natural protein)
–	3	MtGlnK1 (GlnK isoform 1 from Methanothermococcus thermolithotrophicus), recombinant, N-terminally tagged (natural protein)
